The MegaScale stability set (Tsuboyama et al. 2023)

B1: EHEE_rd3_0053 (parent)
chain: TYTFKVDNKDQAKKAAKWAKKLGLSFQIEKHGDTFKITVQ
B2: EEHEE_rd4_0647 (parent)
chain: MQVTWGNVTVTFSNPEEAKKYAEKVARKLGGQVELHNGQFRIK

Variants of: B1
Assay: folding stability dG (cDNA display proteolysis); higher = more stable
Details: PBS, room temperature

Folding stability dG [kcal/mol] of substitutions, site by site:
D10: P 1.89
T34: A 2.64 | G 3.12
K9: D 1.91 | Q 2.26
W18: E 0.8
H31: Y 2.45
S25: Y 2.18 | Q 2.37
D7: H 2.58
A19: K -0.645
T38: D 0.562
G32: N 1.96 | R 1.58 | Y 1.59
K20: Y 2.13 | P -0.72
K13: L 2.46
F35: G -0.794
K14: W 2.4
A16: L 2.33
I28: K 1.06
L22: Y 2.3 | D -0.31
E29: Y 1.95 | G 1.19 | I 2.24 | T 2.48

Variants of: B2
Assay: as above
Details: PBS, room temperature

Folding stability dG [kcal/mol]: each site, then its substitutions
S13: Y 2.38 | D 2.75 | L 2.57 | F 2.49 | V 2.51 | A 2.8 | G 2.5 | C 3.28 | Q 2.71 | R 2.81 | W 2.34 | P 2.58 | K 2.86 | I 2.52 | H 2.62 | M 2.6 | N 2.79 | E 2.65 | T 2.83
N14: F 1.98 | P 0.65 | D 2.79 | Y 1.91 | T 2.89 | A 2.21 | G 2.12 | S 2.86 | R 2.47 | Q 2.2 | E 2.2 | I 2.08 | V 2.05 | H 2.38 | L 2.23 | W 1.76 | M 1.99 | K 2.42
V10: H 2.15 | Y 2.7 | K 2.66 | D 0.472 | I 2.94 | E 1.5 | Q 1.85 | W 2.84 | M 2.67 | G 0.582 | L 2.76 | F 2.53 | P -0.399 | A 1.97 | S 1.23 | R 2.65 | C 3.62 | N 1.2 | T 1.74
W5: M 1.83 | S 0.968 | Y 2.53 | H 2.15 | A 1.17 | Q 0.719 | E 0.581 | N 1.12 | T 1.19 | K 0.547 | R 0.966 | P 0.153 | D 1.03 | L 2.12 | F 2.53 | I 2.61 | G 0.431 | V 2.64 | C 3.09
Q2: L 2.55 | N 2.49 | M 2.71 | D 2.46 | E 2.52 | P 1.45 | G 2.12 | V 2.86 | T 3.09 | A 2.64 | K 2.94 | H 2.3 | F 2.16 | I 2.82 | S 3.04 | Y 2.23 | R 2.72 | W 1.97 | C 3.07
E16: W 2.75 | G 2.54 | C 3.18 | Q 2.7 | M 2.76 | I 2.81 | R 2.55 | S 2.68 | V 2.81 | A 2.78 | K 2.52 | Y 2.77 | F 2.71 | N 2.56 | H 2.7 | T 2.75 | L 2.78 | D 2.79 | P 1.4
M1: D 1.42 | C 3.6 | P 2.09 | G 1.95 | L 2.78 | W 3.72 | N 2.45 | H 2.9 | I 3.13 | A 2.6 | R 2.57 | Y 3.45 | T 3.28 | Q 2.03 | F 3.34 | S 2.61 | E 1.3 | K 2.27 | V 3.11
V3: I 1.61 | H 0.343 | G 0.57 | A 0.626 | Q 0.078 | Y 0.842 | F 1.97 | N 0.227 | R 0.122 | P 0.068 | L 1.35 | M 1.05 | S 0.229 | W 0.9 | E 0.263 | T 0.641 | C 1.8 | K 0.404 | D 0.045
T9: E 1.46 | L 2.22 | M 2.15 | F 1.95 | G 0.945 | V 2.84 | C 3.2 | A 1.85 | I 2.71 | N 1.62 | D 0.892 | W 1.78 | Y 1.85 | R 2.06 | Q 1.84 | P 0.422 | K 2.02 | S 2.26 | H 1.77
T4: F 2.24 | G 1.46 | K 2.58 | I 2.97 | P 0.446 | W 2.11 | V 3.15 | Y 2.21 | S 2.81 | D 0.672 | A 2.49 | H 2.54 | L 2.6 | R 2.76 | N 2.18 | E 1.66 | M 2.58 | Q 2.49
T11: R 2.62 | Q 2.53 | Y 3.02 | H 2.72 | L 2.62 | E 2.34 | G 2.05 | F 3 | D 1.99 | P 1.65 | I 2.71 | C 3.51 | V 2.59 | W 3.23 | K 2.49 | M 2.64 | A 2.38 | S 2.73 | N 2.58
G6: V 1.39 | A 2.25 | C 3.2 | D 2.86 | R 2.21 | H 2.48 | M 2.32 | Q 1.99 | W 2.76 | K 2.1 | F 2.55 | E 1.96 | S 2.08 | T 1.3 | I 1.59 | P 0.79 | L 2.49 | N 2.38 | Y 2.51
N7: L 2.27 | E 2.39 | K 2.72 | G 2.58 | P 2.29 | F 2.43 | V 2.33 | A 2.39 | I 2.31 | C 3.66 | T 2.67 | D 2.58 | Y 2.54 | H 2.64 | M 2.37 | S 2.68 | R 2.64 | Q 2.49 | W 2.43
V8: N 2.51 | I 2.96 | M 2.68 | R 2.5 | F 2.81 | A 1.89 | K 2.57 | P 0.417 | S 2.01 | G 1.49 | Q 2.35 | T 2.64 | Y 2.84 | W 2.79 | D 1.33 | H 2.8 | E 1.92 | L 2.45
P15: L 2.77 | V 2.93 | T 2.83 | S 2.79 | Q 2.7 | E 2.54 | I 2.99 | C 3.26 | K 2.83 | R 2.78 | D 1.92 | A 2.89 | H 2.88 | G 2.46 | N 2.29 | F 3.41 | M 3.03 | Y 3.5 | W 3.08
E17: H 2.7 | G 1.97 | F 2.47 | C 3.18 | A 2.93 | D 2.92
F12: P -0.871 | Q 0.017 | S -0.107 | K 0.98 | Y 1.28 | E -0.423 | A 0.449 | L 1.96 | I 1.43 | C 2.49 | V 0.887 | W 1.18 | M 1.38 | T 0.01 | G -0.079 | R 0.663 | N -0.258 | H 0.464
